Measurements: US20170218072A1

Columns and labels:
HER2ex. [1] = molecular target: HER2ex. (UniProt P04626); assay: SPR (Biacore X100); multi-cycle method, 0.05% Tween20-PBS; settings: scFv
HER2ex. [2] = molecular target: HER2ex. (UniProt P04626); assay: SPR (Biacore X100); multi-cycle method, 0.005% Tween20-PBS; settings: scFv
HER2ex. [3] = molecular target: HER2ex. (UniProt P04626); assay: SPR (Biacore X100); single cycle method, 0.05% Tween20-PBS, immobilized full-Ab

Kd (HER2ex. [1]) | Kd (HER2ex. [2]) | Kd (HER2ex. [3]) | Substance
0.0947 nM | 0.256 nM | – | Trastuzumab scFv
– | – | 3.56 nM | Trastuzumab full-body Ab
